According to PMC2566858 (Nucleic Acids Research, 2008):
Where two headings read alike, the source gives them in different places.

T1: rGyr_hel (reverse gyrase helicase-like domain) (Thermotoga maritima, UniProt O51934 59-541)
T1 sequence: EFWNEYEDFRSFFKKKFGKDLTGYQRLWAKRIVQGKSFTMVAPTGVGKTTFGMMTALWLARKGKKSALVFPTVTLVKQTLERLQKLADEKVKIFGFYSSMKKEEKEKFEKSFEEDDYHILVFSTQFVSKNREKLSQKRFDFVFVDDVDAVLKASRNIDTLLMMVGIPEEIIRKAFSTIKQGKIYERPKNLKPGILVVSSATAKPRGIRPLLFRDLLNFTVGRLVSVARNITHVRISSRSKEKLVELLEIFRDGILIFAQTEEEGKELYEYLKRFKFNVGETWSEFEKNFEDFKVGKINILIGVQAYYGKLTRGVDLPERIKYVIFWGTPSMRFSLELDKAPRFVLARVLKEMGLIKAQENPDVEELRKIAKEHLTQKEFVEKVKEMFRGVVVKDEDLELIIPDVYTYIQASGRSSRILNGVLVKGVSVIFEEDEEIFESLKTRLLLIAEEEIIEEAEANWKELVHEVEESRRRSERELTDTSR

T2: rGyr_hel K106Q (Thermotoga maritima, UniProt O51934 59-541, K106Q)
T2 sequence: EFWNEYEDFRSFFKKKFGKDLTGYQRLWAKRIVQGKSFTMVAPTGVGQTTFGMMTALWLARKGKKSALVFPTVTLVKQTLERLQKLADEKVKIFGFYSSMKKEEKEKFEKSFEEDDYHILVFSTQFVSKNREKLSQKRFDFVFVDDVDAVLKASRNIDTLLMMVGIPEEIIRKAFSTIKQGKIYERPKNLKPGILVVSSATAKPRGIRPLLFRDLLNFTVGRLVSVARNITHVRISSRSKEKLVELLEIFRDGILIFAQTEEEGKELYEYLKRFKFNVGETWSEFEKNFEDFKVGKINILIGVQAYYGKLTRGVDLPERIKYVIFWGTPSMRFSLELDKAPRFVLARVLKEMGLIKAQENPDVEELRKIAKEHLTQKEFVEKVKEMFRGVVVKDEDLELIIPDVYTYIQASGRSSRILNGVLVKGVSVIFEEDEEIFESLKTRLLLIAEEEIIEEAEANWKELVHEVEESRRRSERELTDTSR

T3: rGyr_fl Y851F (full-length reverse gyrase) (Thermotoga maritima, UniProt O51934 1-1104, Y851F)
T3 sequence: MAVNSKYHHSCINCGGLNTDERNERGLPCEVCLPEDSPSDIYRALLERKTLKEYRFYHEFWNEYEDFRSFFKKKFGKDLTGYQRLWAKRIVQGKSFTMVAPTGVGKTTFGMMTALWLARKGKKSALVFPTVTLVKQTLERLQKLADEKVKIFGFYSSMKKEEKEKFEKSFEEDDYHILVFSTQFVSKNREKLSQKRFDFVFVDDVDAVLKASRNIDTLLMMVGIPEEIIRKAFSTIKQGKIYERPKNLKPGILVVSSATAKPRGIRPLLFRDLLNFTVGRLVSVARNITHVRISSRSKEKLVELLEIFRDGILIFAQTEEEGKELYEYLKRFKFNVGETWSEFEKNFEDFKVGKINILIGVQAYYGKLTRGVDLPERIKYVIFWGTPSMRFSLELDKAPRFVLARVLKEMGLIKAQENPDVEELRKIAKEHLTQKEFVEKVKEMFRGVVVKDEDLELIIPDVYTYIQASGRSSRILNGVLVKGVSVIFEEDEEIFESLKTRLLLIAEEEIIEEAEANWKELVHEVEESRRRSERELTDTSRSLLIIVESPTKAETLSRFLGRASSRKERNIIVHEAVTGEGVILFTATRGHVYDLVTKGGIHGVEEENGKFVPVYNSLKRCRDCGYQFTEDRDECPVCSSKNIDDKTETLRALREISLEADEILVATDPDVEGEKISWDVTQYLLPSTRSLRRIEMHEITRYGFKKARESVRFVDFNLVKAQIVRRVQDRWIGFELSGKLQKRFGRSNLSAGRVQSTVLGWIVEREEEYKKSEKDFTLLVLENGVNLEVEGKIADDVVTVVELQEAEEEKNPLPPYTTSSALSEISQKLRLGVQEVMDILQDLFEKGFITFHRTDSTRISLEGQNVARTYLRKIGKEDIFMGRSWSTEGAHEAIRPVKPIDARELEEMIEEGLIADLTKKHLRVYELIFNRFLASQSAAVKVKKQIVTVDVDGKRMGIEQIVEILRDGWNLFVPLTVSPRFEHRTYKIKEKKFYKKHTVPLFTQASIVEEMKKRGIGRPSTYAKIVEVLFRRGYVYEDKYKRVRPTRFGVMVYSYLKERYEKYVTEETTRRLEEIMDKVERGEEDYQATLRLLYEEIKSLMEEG


Columns and labels:
Test in all cases: fluorescence anisotropy
[1] = target: T1, rGyr_hel (reverse gyrase helicase-like …)
rGyr_hel K106Q [2] = target: T2, rGyr_hel K106Q
[3] = target: T1, rGyr_hel (reverse gyrase helicase-like …); remark: listed apart in the source
rGyr_hel K106Q [4] = target: T2, rGyr_hel K106Q; remark: listed apart in the source
[5] = target: T3, rGyr_fl Y851F (full-length reverse …)
[6] = target: T3, rGyr_fl Y851F (full-length reverse …); remark: listed apart in the source

Binder | Kd [1] [nM] | Kd (rGyr_hel K106Q [2]) [nM] | Kd [3] [nM] | Kd (rGyr_hel K106Q [4]) [nM] | Kd [5] [nM] | Kd [6] [nM]
60-base ssDNA (ssDNA) DNA: AAGCCAAGCTTCTAGAGTCAGCCCGTGATATTCATTACTTCTTATCCTAGGATCCCCGTT | 1200 ± 200 | 250 ± 30 | 200 ± 30 | 180 ± 30 | 35 ± 5 | 60 ± 15
60 bp dsDNA (dsDNA) DNA 1: AAGCCAAGCTTCTAGAGTCAGCCCGTGATATTCATTACTTCTTATCCTAGGATCCCCGTT DNA 2: AACGGGGATCCTAGGATAAGAAGTAATGAATATCACGGGCTGACTCTAGAAGCTTGGCTT | 1000 ± 100 | 2900 ± 600 | 3900 ± 600 | 3800 ± 600 | 490 ± 60 | 250 ± 40
